Series [1] concerns cholesterol. Put plainly: In vitro conversion assay of cholesterol by purified CYP11A1 variants with Adx and AdR. It is filed as biochemical. The conditions noted are these: 20 μM cholesterol, saturating Adx and AdR; for activity, SA4 compared with SA6 (in vitro conversion of cholesterol): 1 μM enzyme. As for the experimental part:
For in vitro enzyme assays, 150 mM of HEPES buffer, adjusted to pH 7.4, containing 0.05% Tween-20 and 1 mM MgCl2, were applied as reaction buffer. 1 unit of glucose-6-phosphate dehydrogenase, with 5 mM glucose-6-phosphate as substrate, served as a NADPH-regenerating system.
For WT P450scc (noted “SA4”, SEQ ID NO: 4) and P450scc-I1A-K193E (noted “SA6”, SEQ ID NO: 6) the concentrations of CYP11A1, Adx and AdR were of 1 μM, 20 μM and 0.5 μM, and for P450scc-R225T-N289D (noted “SA1”, SEQ ID NO: 1) the concentrations of CYP11A1, Adx and AdR were of 0.25 μM, 5 μM and 0.125 μM, respectively.
The samples were pre-warmed to 37° C. and the reaction was started by addition of NADPH to a final concentration of 100 μM. The mixtures were incubated at 37° C. with agitation for 30 s. The reaction was stopped by boiling the samples in water for 30 s.
To allow photometric detection at 240 nm, the steroids were converted into their 3-keto-Δ4 derivatives using a cholesterol oxidase from Nocardia spec.
20 μl of a cholesterol oxidase solution (5 mg cholesterol oxidase and 5 mg Na-cholate dissolved in 5 ml of 50 mM HEPES buffer pH 7, containing 0.05% Tween-20) were added to the samples. After incubation at 37° C. for 1 h, 11-deoxycorticosterone (DOC) was added to the reaction mixtures as an internal standard, followed by a 2-times extraction with equal volumes of ethylacetate. After evaporation, the extracts were dissolved in acetonitrile/water.
After acute evaluation of the concentration of each P450scc preparation, SA1, SA4 and SA6 were used in the following in vitro assays. Each of these isoforms was reconstituted at a concentration of 1 μM in the presence of cholesterol as a substrate (20 μM) in saturating amounts of Adx and AdR.

Series [2] deals with cholesterol. Put plainly: In vivo conversion of cholesterol into pregnenolone by recombinant Bacillus megaterium expressing the P450scc polypeptide. The series is classed as cell-based. The note with it: 300 μM cholesterol, Bacillus megaterium MS941, assessed after 24 h and 48 h (FIGS. 3 and 4).

Here are results for three molecules from patent US10155934B2, “Cytochrome P450 polypeptide with increased enzyme activity” (SANOFI, priority 2014, dated 2018).

Numbering of substitutions follows the chain as printed. In names and notes the source's numbering stands.

B1: SA1: CYP11A1 comprising a threonine at position 225 and an aspartic acid at position 289 (protein)
chain: ISTKTPRPYSEIPSPGDNGWLNLYHFWREKGSQRIHFRHIENFQKYGPIYREKLGNLESVYIIHPEDVAHLFKFEGSYPERYDIPPWLAYHRYYQKPIGVLFKKSGTWKKDRVVLNTEVMAPEAIKNFIPLLNPVSQDFVSLLHKRIKQQGSGKFVGDIKEDLFHFAFESITNVMFGERLGMLEETVNPEAQKFIDAVYKMFHTSVPLLNVPPELYRLFRTKTWTDHVAAWDTIFNKAEKYTEIFYQDLRRKTEFRNYPGILYCLLKSEKMLLEDVKANITEMLAGGVDTTSMTLQWHLYEMARSLNVQEMLREEVLNARRQAEGDISKMLQMVPLLKASIKETLRLHPISVTLQRYPESDLVLQDYLIPAKTLVQVAIYAMGRDPAFFSSPDKFDPTRWLSKDKDLIHFRNLGFGWGVRQCVGRRIAELEMTLFLIHILENFKVEMQHIGDVDTIFNLILTPDKPIFLVFRPFNQDPPQA
modifications: Mutated amino acid sequence of CYP11A1
Consider B1, for which the “activity compared to SA4 and SA6 (in vitro conversion of cholesterol)” value in the series on cholesterol [1] (37° C., 30 s, HPLC (FIG. 1)) was 2-3 fold. Besides, in the series with cholesterol [2], the “in vivo cholesterol conversion activity compared to SA6” value was 2 fold.

B2: SA6: P450scc-I1A-K193E polypeptide, control (protein)
chain: B1 chain with I1A, K154E, T225R, D289N
modifications: Mutated amino acid sequence of CYP11A1
notes: P450scc-I1A-K193E polypeptide, control
In the case of B2, the “activity, SA4 compared with SA6 (in vitro conversion of cholesterol)” value with cholesterol [1] is recorded as “identical activity”.

B3: SA4: WT Bos taurus CYP11A1, mature form, wild-type control (protein, listed as Bos taurus)
chain: B1 chain with T225R, D289N
With B3, the “activity, SA4 compared with SA6 (in vitro conversion of cholesterol)” value with cholesterol [1] was “identical activity”.
